Test results from paper PMC11252000, “MFSD1 with its accessory subunit GLMP functions as a general dipeptide uniporter in lysosomes” (Nature Cell Biology, 2024).
Where a chain is given by its changes, count along the chain named. Names and notes keep the numbering of the source. Each block holds one molecule with its values, some of them ahead of it. Where a SMILES comes first, the peptide text is derived from it.

Assays:
[1] = biological target: T1, MFSD1 (MFSD1WT, mmMFSD1, MFSD1-strep) (Mus musculus, UniProt Q9DC37, Y56A); test: proteoliposome uptake, pyranine fluorescence; type: biochemical; settings: pH 6.8, 22 °C, valinomycin; 2.5 mM peptide
T1 construct: full length; N-terminal Twin-Strep-tag + HRV 3C site; Expi293F; purified in DDM/CHS; liposomes POPE:POPG:CHS for transport
T1 sequence (Q9DC37 1-464 Y56A): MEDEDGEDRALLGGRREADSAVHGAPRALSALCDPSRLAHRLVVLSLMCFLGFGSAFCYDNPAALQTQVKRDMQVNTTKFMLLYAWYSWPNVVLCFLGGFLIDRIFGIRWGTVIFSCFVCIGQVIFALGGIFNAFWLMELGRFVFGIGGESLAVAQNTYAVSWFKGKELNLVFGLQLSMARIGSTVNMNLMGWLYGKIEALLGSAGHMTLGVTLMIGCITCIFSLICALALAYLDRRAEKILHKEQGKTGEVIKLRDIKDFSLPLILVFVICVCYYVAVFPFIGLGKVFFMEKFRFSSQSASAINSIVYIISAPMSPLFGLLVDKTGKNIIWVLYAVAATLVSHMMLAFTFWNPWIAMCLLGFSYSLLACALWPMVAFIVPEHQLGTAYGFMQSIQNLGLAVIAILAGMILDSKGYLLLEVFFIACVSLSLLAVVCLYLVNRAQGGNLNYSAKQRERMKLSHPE

[2] = biological target: T2, GLMP–MFSD1 (GLMP–MFSD1-strep fusion) (Mus musculus, UniProt Q9DC37); test: cryo-EM, […] Å map with extra density; type: binding; settings: 20 mM His–Ala; central cavity, outward-open; peptide not unambiguously placed; model 8R8Q (called apo) built in this map
T2 construct: single-chain fusion GLMP-GSAGSAAGSGEF-MFSD1; C-terminal 3C site + Twin-Strep-tag; Expi293F; DDM/CHS; with Glycosylated lysosomal membrane protein
T2 sequence (Q9DC37 1-464): T1 sequence (Q9DC37 1-464 Y56A) with A56Y
T2 sequence (Q9JHJ3 36-404 partner): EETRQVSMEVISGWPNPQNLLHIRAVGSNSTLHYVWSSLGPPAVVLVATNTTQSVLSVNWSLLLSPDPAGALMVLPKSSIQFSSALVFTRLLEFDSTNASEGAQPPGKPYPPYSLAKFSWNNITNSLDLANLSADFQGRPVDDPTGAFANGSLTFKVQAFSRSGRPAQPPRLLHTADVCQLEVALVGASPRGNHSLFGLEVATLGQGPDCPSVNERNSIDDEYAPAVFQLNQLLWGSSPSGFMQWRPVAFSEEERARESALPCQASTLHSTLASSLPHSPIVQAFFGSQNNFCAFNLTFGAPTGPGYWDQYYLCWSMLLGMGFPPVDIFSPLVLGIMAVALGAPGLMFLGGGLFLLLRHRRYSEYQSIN

[3] = biological target: T3, MFSD1 (MFSD1WT, mmMFSD1, MFSD1-strep) (Mus musculus, UniProt Q9DC37); test: nanoDSF thermal shift titration; type: binding
T3 construct: full length; N-terminal Twin-Strep-tag + HRV 3C site; Expi293F; purified in DDM/CHS; liposomes POPE:POPG:CHS for transport
T3 sequence (Q9DC37 1-464): T1 sequence (Q9DC37 1-464 Y56A) with A56Y

[4] = biological target: T3, MFSD1 (MFSD1WT, mmMFSD1, MFSD1-strep); test: nanoDSF thermal shift; type: binding; settings: 5 mM ligand, pH 7.5, DDM/CHS
[5] = biological target: MFSD1-strep (mouse major facilitator superfamily domain containing 1 protein with N-terminal Twin-Strep-tag) (mouse) (UniProt Q9DC37)
[6] = substrate: CC(C)C[C@H](N)C(=O)N[C@@H](C)C(=O)O; test: isotope tracer uptake, LC–MS/MS of Leu(d3) in oocytes; type: cell-based, Mus musculus; settings: pH 5.0, room temperature, labelled compound, hydrochloride salt, Extended Data Fig. 4a legend gives 4.4 mM for the displayed fit
[7] = substrate: C[C@H](NC(=O)[C@@H](N)CCCCN)C(=O)O; test: TEVC current in Xenopus oocytes; type: cell-based, Mus musculus; settings: pH 5.0, −40 mV, room temperature (20 °C), hydrobromide salt
[8] = substrate: C[C@H](NC(=O)[C@@H](N)Cc1c[nH]cn1)C(=O)O; test: proteoliposome uptake, pyranine fluorescence; type: biochemical, Mus musculus; settings: pH 6.8, 22 °C, valinomycin-driven membrane potential approx. −100 mV
[9] = substrate: N[C@@H](Cc1c[nH]cn1)C(=O)N[C@@H](CO)C(=O)O; test: proteoliposome uptake, pyranine fluorescence; type: biochemical, Mus musculus; settings: pH 6.8, 22 °C, valinomycin-driven membrane potential approx. −100 mV
[10] = biological target: T4, MFSD1 as it stands in the GLMP–MFSD1 fusion construct (mouse, UniProt Q9DC37 1-464); test: cryo-EM structure; purified GLMP–MFSD1 fusion in 20 mM HEPES pH 7.5, 150 mM NaCl, 0.015% DDM, 0.0015% CHS; apo (4.2 Å) and dialysed against 20 mM His–Ala (4.1 Å); outward-open conformation; settings: both partners purified
T4 construct: mouse MFSD1, UniProt Q9DC37; C-terminal part of the fusion m3; written apart for the pair row of the structure; also called MFSD1out; source: Expi293F, transiently transfected, purified as part of GLMP–MFSD1-strep; not shown: Twin-Strep, C-terminal, kept
T4 sequence: T1 sequence (Q9DC37 1-464 Y56A) with A56Y

uptake rate vs MFSD1WT [1]: ~ 50 % reduction
Molecule: N[C@@H](Cc1c[nH]cn1)C(=O)N[C@@H](CO)C(=O)O [His-Ser] (H-His-Ser-OH)

Kd [3]: 6.7 ± 0.55 mM
uptake rate vs MFSD1WT [1]: ~ 50 % reduction
Molecule: C[C@H](NC(=O)[C@@H](N)Cc1c[nH]cn1)C(=O)O [His–Ala] (H-His-Ala-OH)
cryo-EM, 4.1 Å map with extra density [2]: revealed an additional density for GLMP–MFSD1His–Ala

ΔTm [4]: 14 °C
Molecule: CC(C)C[C@H](NC(=O)[C@@H](N)CC(C)C)C(=O)O [Leu–Leu]

KM of His–Ala uptake into MFSD1 proteoliposomes (pyranine assay) [5]: 119 µM
Molecule: His–Ala dipeptide

B1: MFSD1–GLMP oocytes (MFSD1L11A/L12A-EmGFP + GLMPY400A-mKate2) (Mus musculus; L11A/L12A) (protein)
chain: T1 sequence (Q9DC37 1-464 Y56A) with L11A, L12A, A56Y
notes: heterodimer at plasma membrane of Xenopus laevis oocytes; lysosomal sorting mutants; EmGFP and mKate2 fusions; with Glycosylated lysosomal membrane protein
Km [6]: 5600 ± 1600 µM
Km [7]: 2600 ± 400 µM

B2: MFSD1 (MFSD1WT, mmMFSD1, MFSD1-strep) (Mus musculus) (protein)
chain: T1 sequence (Q9DC37 1-464 Y56A) with A56Y
notes: full length; N-terminal Twin-Strep-tag + HRV 3C site; Expi293F; purified in DDM/CHS; liposomes POPE:POPG:CHS for transport
Km [8]: 119.1 ± 59.3 µM
Km [9]: 24.4 ± 13.5 µM

binding result [10]: binds
B3: GLMP as it stands in the GLMP–MFSD1 fusion construct (natural protein, mouse, UniProt Q9JHJ3 36-404, looked up)
chain: T2 sequence (Q9JHJ3 36-404 partner)
modifications: N-glycans on Asn85, Asn94, Asn157, Asn228 and Asn331
notes: mouse GLMP, UniProt Q9JHJ3; N-terminal part of the fusion m3; written apart for the pair row of the structure; source: Expi293F, transiently transfected, purified as part of GLMP–MFSD1-strep
